Data from patent publication US20200048654A1.

These substances were tested against rice XA21 receptor kinase (rice) (assay: cell-based or functional assay).

Substance | EC50 of total ROS production over 3 h in Ubi::XA21 rice leaves
RaxX21-sY (peptide) | 20 nM
RaxX24-sY (peptide) | 30 nM
RaxX39-sY (peptide) | 70 nM
RaxX60-sY (full-length sulfated recombinant RaxX-His from Xoo PXO99) (ligand) | 100 nM
